Positions count from the first letter of the chain named. Blank lines part the entries; values can stand above or below the binder they belong to.
How the values were obtained:
[1] = target: human TNFRSF25 over-expressed on CHOK1 cells (cDNA sequence NP_683866) (human) (UniProt Q93038); experiment: flow cytometry competition (upper panel); CHOK1-TNFRSF25+ cells with antibody 30 min at 4 C, then biotinylated human TL1A-Fc at 156 nM, PE-streptavidin
[2] = target: human TNFRSF25 over-expressed on CHOK1 cells (cDNA sequence NP_683866) (human) (UniProt Q93038); experiment: flow cytometry on CHOK1-TNFRSF25+ cells; APC anti-human Fc
[3] = target: human TNFRSF25 over-expressed on CHOK1 cells (cDNA sequence NP_683866) (human) (UniProt Q93038); experiment: flow cytometry on CHOK1-TNFRSF25+ cells (lower panel), 1 h at 4 C, APC anti-human Fc

B1: NH24-35 (antibody) (antibody, V domains shown)
VH: EVQLVESGGGSVQPGGSLRLSCAASGFTFSSYGMSWIRQAPGKGLEWVSYISSSGGHTYYADSVKGRFTISRDNAKNSLYLQMNSLRAEDTAVYYCARYSGAFDHWGQGTLVTVSS
VL: DIVMTQSPSSLSASVGDRVTITCQASQDITNYLSWYQQKPGKAPKLLINDASNLETGVPSRFSGSGSGTDFTFTISSLQPEDIATYYCQQYDTLPITFGQGTRLEIKR
IC50 [1]: 4 nM

B2: NH24-162 (antibody, V domains shown)
VH: B1 VH with I37V, V48I, R67Q, Y99G, A102S, H105Y
VL: B1 VL with T30S, N49S, T93N
IC50 [1]: 49 nM

Second part, the binder after the results:

IC50 [1]: 8 nM
B3: NH24-72 (antibody, V domains shown)
VH: B1 VH with S35N, V48I, S49T, Y99G, S100Q, A102P, D104E, H105Y
VL: B1 VL with T30S, T93N

EC50 [2]: 0.05 nM
IC50 [1]: 49 nM
B4: NH46 (whole antibody) (antibody, human IgG1, kappa, V domains shown)
VH: QVQLVQSGSEVKKPGASVRVSCKVSGSTVKELSMHWVRQAPGKGLEWMGGYDPEDGESIFAQKFQGRVNMTEDRSTDTAYMELSSLRSEDTAVYYCATDLNWEDAFDVWGQGTMVTVSS
VL: QSVLTQPPSVSAAPGQKVTISCSGSGSNIGNYYVAWYQQFPGTAPKLLIYDNNKRPSGIPDRFSGSKSGTSATLGITGLQTGDEADYYCGTWDTSLTAGDIYVFGTGTKVTVLR

EC50 (read off the curve) [3]: 0.003 nM
B5: SL-061mut213 (antibody, human IgG1, kappa, V domains shown)
VH: QVQLQQSGPGLVKPSQTLSLTCAISGDSVSSYSAAWNWIRQSPSRGLEWLGRTYYRSKWFNDYAVSVKSRITINPDTSKNQFSLQLNSVTPEDTAVYYCARDYYGSESYYNRGYYYYGLDVWGQGTTVTVSS
VL: AIQLTQSPSSLSASVGDRVTITCRASPSISSALAWYQQKPGKAPKLLMYDESSQEGSVPSRFSGSGSGTDFTLTISSLQPEDFATYYCQQFNEYPLTFGGGTKVEIKR
